Experimental data taken from the RNAGym collection of RNA variant scans (doi:10.1073/pnas.2313332121).

B1: TPR t1 (parent)
chain: GACCAAUCUGCCCUCAGAGCUCGAGAACAUCUUCGGAUGCAGAGGAGGCAGGCUUCGGUGGCGCGAUAGCGCCAACGUCCUCAACCUCCAAUGCAUCCCACCACAUGAUGAUGCCUGAAGAGCCUUGGUUUUUUG

Variants of: B1
Experiment: polymerase ribozyme fitness, log enrichment relative to wild type (log ratio); higher = more active; in vitro selection for triplet polymerase activity
In short: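 To select mutant libraries of each subunit of a heterodimeric triplet polymerase ribozyme, built by PCR and transcribed, each was annealed with a biotinylated primer, partner subunit and triplets, then incubated frozen at −7 °C. Extended constructs were gel-excised, captured on streptavidin beads and amplified by RT-PCR, in one round carried out in triplicate. Illumina sequencing of input and output libraries kept genotypes with ≥10 input reads and ≥1 read per output. Fitness is the base-2 logarithm of genotype enrichment relative to wild-type enrichment, from inverse-variance-weighted replicate averages.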

Variant | polymerase ribozyme fitness (log ratio)
U7A U92A A103C | -5.64
G61U A84C | 0.447
A84U U96A C99G C114A | -6.17
C4U A5C G57C A68U C73U C115U C124U | -6.74
G61C U125A | -1.89
A27G C102U A103G U112G | -7.77
C53G C114U G122A | -2.38
U30C G44A C53G | -5.41
G77A C80U G113A | -1.46
A2U C72U C101G C124A | -2.06
G47C A90U G128C | -5.03
C15A G47U C80U C86A | -3.28
C12U G42A | -1.82
G58C A95G U109A | -5.73
A37C C123A | -0.297
C15A C20U G58A U87G A90C C114G | -4.17
G63U C104U | -1.36
G69C C104A | -1.87
G63C A105U | -2.44
C40G C79U | -1.27
C79A G93A G110U | -4.93
G10U C12G C89G U96A G110U U112A G117C | -5.26
U78C C88A U106G C114G | -3.35
C70U C82G G117U | -3.92

Variant | polymerase ribozyme fitness (log ratio)
U112A G128U U131C | 1.17
C12U A26U C94U A118G | -2.71
G63U C70A U116A | -3.62
C8G G60U | 0.698
C8G C80G G113U | -5.81
G10A A83C G128U | -2.33
C98U G110C U131A | -5.64
C49A A50U C62U C88G C123U | -0.464
U7G C70A U87A A121G | 1.36
A2U A6U C13U C20U G57A C82G | -4.79
C15U A90U | -2.96
U38A A41G G44A C64U C82U | -4.14
U78C C102A G117C | -6.34
G47U G69C A105U | -5.38
C56G C64U C79A | -1.17
C64U A84U | -0.154
G10C A16U C115A | -2.52
C34U G52A G71U | -4.6
C4A U14G C49A C73G C86U | -4.9
G17U A18G C56G A84G U131G | -5.98
A29C U54C A84U G120C | -2.27
A41U G45A | -1.87
C62A U106A | -1.37
U81G C82A | -2

Variant | polymerase ribozyme fitness (log ratio)
G10C A41U A50G | -1.93
C8G A37U U38C G47A U131A | -1.99
A26C G39U C114G | -6.59
C8U C62G | -0.903
C15A G113A | -3.63
C86U C101G | -2.55
C8A A43U G71C | -2.95
G19C G42U G45C C79A C82G | -4.37
U7A C64U | -0.637
U9A C11U C76U A84C | -0.377
A43C U87A G110A | -5.45
G51A A83G G120U C123G G128U | -2.51
G39U G52U G61U C102U | -4.31
C70U C82U G93U | -1.52
C8U A46G C56G | -0.511
C72U U116C | -0.368
U116C G120U | 0.377
G23U G117A | -6.33
G48U C56A G69U C89A C115A A118U | -1.82
A18G G69U | -1.47
C62U G77U | -0.487
G77U A103C | -4.83
A18U A43G | -1.5
G19A G117A | -4.95

Variant | polymerase ribozyme fitness (log ratio)
C22G G63U C88G | -5.64
G61A C123A | 0.936
C13A C62U | -2.18
U9C U55G G69A | -1.8
C12A G42A | -1.63
G48C U78A A111U C123A U129A | -6.15
C8A G61C | -0.912
G19U C70U | -3.23
U7A U130A | -0.147
G25A G71A U112C | -6.36
C12U G36A A66C U78C C82G A121U | -0.787
C13U C53U | 0.405
G17C C62U | -4.67
G128A | -1.65
A46C C80G U130C | -6.42
C8A C28G | -2.05
C20U G61C | -2.87
C4U C73G A118G | -1.58
G17C U106A | -4.68
C88A U112A | -0.232
G36A A37U C86U U112A G120U | -5.12
A37C G44U U133G | -2.6
G69U C80G C98A U130G | -7.2
G42C G71A C72A C115U | -5.81

Variant | polymerase ribozyme fitness (log ratio)
C40U G93A U96G | -0.786
C8U G10U A27U U59C | -3.06
U59A C62U | 0.252
G39A G63U G69U | -1.34
A43U G45A G58C G69U | 0.218
C73G G120C U130A | -0.0194
G42U G77U U92A U106A | -2.9
G39C A91U | -2.41
A24G C98U C101A | -4.13
C3G G47C | -3.72
A16U G69U C80G A90C | -6.49
U59A C76U | -0.808
C12U C13G A37U U54G C80A | -4.65
C88U C89A | -1.24
C13A G42U C72G | -3.63
U7G G39U C49U | -0.696
G69U A84C C124A | 1.33
C53U C115U G117C | -3.76
C4U C40U C62A | -2.28
C15G C85G U96A C114A G117C | -3.58
C22A A119G | -3.88
C73G A111C | -0.327
G36C C70U G113C | -3.46
U92A U133A | -2.62

Variant | polymerase ribozyme fitness (log ratio)
G19A C79G U81C | -3.95
C11U C40U G120A | -0.013
U55C A66G A90U | -4.46
C12U C97A | -3.91
G69A G93U | -4.03
C124U G135U | -0.0615
C20G G120C | -2.75
G19A C85U C114G | -2.91
G60A U78G G113C U133G | -3.73
G63C U78C | -1.55
C40A A43U G44C G110U C114U | -5.04
C15A U106G | -3.3
C12U C62U | 0.166
C11A G107U G122A | -3.88
U54A C72G C104U G113A | -3.29
G93C G117U | -2.87
C12U A43G C72U C123A | 0.368
C73U | 0.0933
C72G A91C A95C A121G G128C U133G | -3.31
G42A U112G | -2.1
C70G U112A | -1.98
U129C U131A | -0.49
G61U A111U | -1.75
C62G G63A | -3.83

Variant | polymerase ribozyme fitness (log ratio)
G52A G77U G117U | -4.34
G36C G60U | -0.402
G51A A103G | -6.42
C13U U33A U125A | -4.68
G60U G120C | 1.43
U78C C114U | -2.28
G42A U55A U112G C115A | -2.35
C49G C62A G93U C104A G113U U116A | -7.29
G35A U59C | -4.9
C4A U59C A90C | -3.84
C3A U55C G61A C86U | -2
G47C U55G C88U | -1.25
G10C A75U C98A U109A G127C | -5.13
A5C G63C A75C C94A G113C G122U | -4.55
C34G A50G C70G A74U A83C G110U U112G G120C | -6.67
C3G G113A | -3.52
A6C G120A | 0.157
C56A G117U | -2.01
C53A C98U | -0.601
U7C C11G G65C A83U G120C A121U | -6.35
C49U C102A | -3.24
C11A C89A G93A A118G | -3.96
C102U C114G | -4.58
